Measurements reported in patent US20140057830A1 (COMPLIX, published 2014).
Changes are numbered by the printed parent chain. Values belong to the binder of their own block, whether it stands above or below them.

Tests used:
human IL-23 = target: T1, human IL-23 (human, UniProt Q9NPF7 20-189; P29460 23-328); experiment: phage ELISA; IL-23 captured by anti-p40 antibody
T1 construct: Heterodimer p19/p40; in the ELISA captured on the plate through a biotinylated anti-p40 antibody (clone C8.6); also called cytokine IL-23 (eBioscience, 34-8239-85)
T1 sequence (looked up) 1: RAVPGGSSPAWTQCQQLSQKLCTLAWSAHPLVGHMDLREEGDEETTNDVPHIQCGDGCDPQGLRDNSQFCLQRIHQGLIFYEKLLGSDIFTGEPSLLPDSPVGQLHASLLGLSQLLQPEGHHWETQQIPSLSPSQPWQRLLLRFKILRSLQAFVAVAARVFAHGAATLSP
T1 sequence (looked up) 2: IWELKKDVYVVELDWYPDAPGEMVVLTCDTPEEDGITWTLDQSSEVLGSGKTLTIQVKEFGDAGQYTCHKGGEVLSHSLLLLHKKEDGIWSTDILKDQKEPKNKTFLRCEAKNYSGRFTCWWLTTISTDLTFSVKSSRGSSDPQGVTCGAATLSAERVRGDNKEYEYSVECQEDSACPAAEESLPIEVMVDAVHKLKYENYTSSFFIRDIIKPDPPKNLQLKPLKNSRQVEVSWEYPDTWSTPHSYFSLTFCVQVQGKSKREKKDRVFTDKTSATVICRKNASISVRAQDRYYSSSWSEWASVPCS
Experimental: The set-up of the ELISA was as follows. Neutravidin was immobilized on the plate at a concentration of 0.010 mg/ml in PBS (0.100 ml) for 1 hour at room temperature (RT). Plates were washed 5 times with PBS containing 0.05% Tween 20 (PBST) for 5 min. Subsequently, 0.1 ml Biotinylated anti-p40 antibody (100 nM) was added to the plates in PBS containing 0.1% BSA and incubated overnight at 4° C. or at RT for 1 hour. After incubation, plates were washed 5 times with PBST and blocked with PBS containing 0.1% BSA and 0.5% gelatin (0.120 ml/well) for at least 1 hour at room temperature or overnight at 4° C. After washing 5 times with PBST, 100 nM IL-23 (target) was added to 0.1 ml PBS, 0.1% BSA. For individual negative controls no IL-23 was added (background).
In the meantime, the bacteria plates were centrifuged at 1700 rpm for 10 min to pellet the bacteria. Plates with the immobilized IL-23 were washed 5 times with PBST and 0.050 ml of PBS with 0.2% BSA were added to the plate together with 0.050 ml of the bacterial culture supernatant containing phage. Plates were incubated for 1 to 1.5 hours at room temperature while shaking. Shaking of the plates enhanced the ELISA signals.

human Flt3L [1] = target: T2, human Flt3L (human, UniProt P49771 27-160, limits assumed); experiment: isothermal titration calorimetry, 37 C, triplicate
T2 construct: Biotinylated form used in biopanning and phage ELISA; unlabelled in ITC and crystallography; also called hFlt3L; Flt3 ligand
T2 sequence (looked up): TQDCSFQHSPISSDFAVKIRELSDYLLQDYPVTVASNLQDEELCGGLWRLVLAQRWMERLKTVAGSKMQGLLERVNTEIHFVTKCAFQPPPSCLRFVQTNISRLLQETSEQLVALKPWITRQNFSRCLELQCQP
Experimental: (§1) The binding of Alphabody hFlt3L_cl4 to the target hFlt3L was tested by isothermal titration calorimetry (ITC) in order to determine its dissociation constant (KD), thermodynamic parameters (ΔH, ΔS) and binding stoichiometry. Prior to the measurements, Alphabody and target samples were dialyzed against 20 mM HEPES buffer containing 150 mM NaCl, pH 7.4. The ITC measurements were performed in triplicate at a temperature of 37° C. In each experiment, hFlt3L, which exists as a stable dimer in solution, was loaded into the cell (at concentrations 3.0 μM, 6.5 μM and 7.0 μM of hFlt3L dimer, respectively) and hFlt3L_cl4 was loaded in the syringe (at concentrations of 41.35 μM, 89.62 μM and 89.62 μM, respectively). […] This implies that, since the concentrations of hFlt3L were given for the dimeric complex (hFlt3L)₂, only one hFlt3L_cl4 Alphabody binds to one hFlt3L dimer.

human Flt3L [2] = target: T2, human Flt3L; experiment: isothermal titration calorimetry, 37 C, triplicate; hFlt3L dimer in the cell, Alphabody in the syringe
Experimental: as §1

B1: SEQ ID NO 104 (designed binder)
chain: GSIEQIQKNIAYIQERIATIQKKIYRMTGGSGGSGGGGSGGSGGGSIEQIQKQIAAIQKQIAAIQKQIYAMTGSGGGGSGGSGGGGSGGSIEQIQKQIGAIAEQILAIVKQIRAMTP
notes: Alphabody, AC11b library clone
- binding result (human IL-23): binds

B2: SEQ ID NO 95 (designed binder)
chain: B1 chain with N9P, Y12L, K23L, R26G, G99S, V109S, R113W
notes: as for B1
- binding result (human IL-23): binds

B3: SEQ ID NO 122 (designed binder)
chain: B1 chain with N9R, Y12P, R16S, T19G, K23R, G99R, A102T, L106G, V109L, R113F
notes: as for B1
- binding result (human IL-23): binds

B4: SEQ ID NO 105 (designed binder)
chain: GSIEQIQKRIARIQEKIAWIQKPIYQMTGGSGGSGGGGSGGSGGGSIEQIQKQIAAIQKQIAAIQKQIYAMTGSGGGGSGGSGGGGSGGSIEQIQKQIRAIREQIGAILKQIKAMTP
notes: as for B1
- binding result (human IL-23): binds

B5: SEQ ID NO 96 (designed binder)
chain: B4 chain with R9W, R12C, K16C, W19G, P23E, Q26I, R102S, G106Y, L109I, K113S
notes: as for B1
- binding result (human IL-23): binds

B6: SEQ ID NO 99 (designed binder)
chain: B1 chain with N9P, Y12E, R16I, T19R, R26I, G99S, A102G, L106F, R113Y
notes: as for B1
- binding result (human IL-23): binds

B7: SEQ ID NO 107 (designed binder)
chain: B4 chain with R9P, K16T, W19I, P23T, Q26R, R99T, G106R, L109W, K113P
notes: as for B1
- binding result (human IL-23): binds

Other lines, results leading:

- binding result (human IL-23): binds
B8: SEQ ID NO 103 (designed binder)
chain: GSIEQIQKPIASIQELIAMIQKAIYWMTGGSGGSGGGGSGGSGGGSIEQIQKQIAAIQKQIAAIQKQIYAMTGSGGGGSGGSGGGGSGGSIEQIQKQIVAISEQIMAIIKQIGAMTP
notes: as for B1

- binding result (human IL-23): binds
B9: SEQ ID NO 114 (designed binder)
chain: B4 chain with K16P, W19G, P23R, Q26M, R102A, G106V, L109A, K113V
notes: as for B1

- binding result (human IL-23): binds
B10: SEQ ID NO 102 (designed binder)
chain: B1 chain with N9I, Y12S, R16P, T19R, K23G, V109F
notes: as for B1

- Ka (human Flt3L [1]): 4.95e+06 M⁻¹
- ΔG (human Flt3L [1]): -9.5 kcal/mol
- ΔH (human Flt3L [1]): -16.6 kcal/mol
- ΔS (human Flt3L [1]): -22.9 cal/(mol·K)
- Kd (human Flt3L [2]): 202 nM
B11: hFlt3L_cl4 (designed binder)
chain: HMSIEEIQKQIAAIQKQIAAIQKQIYAMTGGSGGGSGGGSGGGSGMSIEEIQKQIAAIQKQIAAIQKQIYAMTGGSGGGSGGGSGGGSGMSIEEIQDQILNIQWQIHDIQQQIIVMTPGG

- binding result (human IL-23): binds
B12: SEQ ID NO 77 (designed binder)
chain: GSIEQIQKGIAAIQEWIATIQKRIYAMTGGSGGSGGGSIEQIQKQIAAIQKQIAAIQKQIYAMTGSGGGGSGGSIEQIQKQIRAITIQIIAIIQQIWAMTP
notes: Alphabody, AC12 library clone
